biological target: Mlp2p–protein A (PrA) (S. cerevisiae, UniProt P40457 1-1679); test: far-Western, overlay or dot blot
Sequence (P40457 whole entry): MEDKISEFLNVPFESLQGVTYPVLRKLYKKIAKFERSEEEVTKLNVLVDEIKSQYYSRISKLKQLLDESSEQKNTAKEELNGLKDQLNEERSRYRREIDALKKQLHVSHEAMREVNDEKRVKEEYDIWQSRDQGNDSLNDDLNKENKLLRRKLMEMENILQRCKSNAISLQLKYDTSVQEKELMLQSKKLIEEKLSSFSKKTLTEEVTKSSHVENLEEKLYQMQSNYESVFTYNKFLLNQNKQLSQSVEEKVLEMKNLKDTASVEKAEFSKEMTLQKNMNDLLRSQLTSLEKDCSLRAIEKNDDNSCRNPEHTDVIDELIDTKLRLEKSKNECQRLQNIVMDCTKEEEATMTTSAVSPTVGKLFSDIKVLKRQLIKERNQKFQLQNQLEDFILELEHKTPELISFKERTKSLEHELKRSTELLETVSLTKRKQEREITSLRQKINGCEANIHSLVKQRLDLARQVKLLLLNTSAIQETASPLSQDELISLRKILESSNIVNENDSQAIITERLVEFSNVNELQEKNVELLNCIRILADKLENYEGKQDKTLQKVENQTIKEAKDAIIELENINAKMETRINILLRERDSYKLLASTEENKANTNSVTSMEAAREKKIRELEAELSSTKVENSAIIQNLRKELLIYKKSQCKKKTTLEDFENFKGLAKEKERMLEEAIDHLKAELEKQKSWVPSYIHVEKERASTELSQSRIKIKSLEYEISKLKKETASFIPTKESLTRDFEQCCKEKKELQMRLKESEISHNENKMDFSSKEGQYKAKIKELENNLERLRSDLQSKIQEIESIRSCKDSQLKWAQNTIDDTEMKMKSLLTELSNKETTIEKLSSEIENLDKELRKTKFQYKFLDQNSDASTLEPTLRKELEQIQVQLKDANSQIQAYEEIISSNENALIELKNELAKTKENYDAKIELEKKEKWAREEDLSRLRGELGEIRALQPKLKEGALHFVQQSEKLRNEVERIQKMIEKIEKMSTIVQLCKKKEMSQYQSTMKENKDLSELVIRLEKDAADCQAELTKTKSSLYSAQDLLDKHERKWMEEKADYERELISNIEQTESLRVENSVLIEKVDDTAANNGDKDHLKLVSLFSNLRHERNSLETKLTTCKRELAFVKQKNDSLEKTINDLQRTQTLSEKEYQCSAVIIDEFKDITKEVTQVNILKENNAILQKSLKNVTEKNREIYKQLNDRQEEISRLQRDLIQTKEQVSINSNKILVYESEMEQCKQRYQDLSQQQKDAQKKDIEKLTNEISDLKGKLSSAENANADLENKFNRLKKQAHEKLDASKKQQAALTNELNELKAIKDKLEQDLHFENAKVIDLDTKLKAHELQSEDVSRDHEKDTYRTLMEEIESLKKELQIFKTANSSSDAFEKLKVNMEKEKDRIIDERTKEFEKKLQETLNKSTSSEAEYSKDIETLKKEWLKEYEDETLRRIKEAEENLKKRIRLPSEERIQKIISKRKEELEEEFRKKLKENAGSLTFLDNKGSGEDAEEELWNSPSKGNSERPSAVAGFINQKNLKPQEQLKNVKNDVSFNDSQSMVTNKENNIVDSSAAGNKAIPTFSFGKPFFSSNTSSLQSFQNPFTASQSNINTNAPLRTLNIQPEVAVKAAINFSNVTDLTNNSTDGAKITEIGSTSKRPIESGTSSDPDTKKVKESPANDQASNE

binding result	Binder
binds	Spc42p (natural protein, UniProt P36094 1-363, looked up) MNGSPTPKRYSSKSSRLYDDYYNIPYQYSNPTPMNRDYNDVGSRINADKLVPEEYKRNTEFINKAVQQNKELNFKLREKQNEIFELKKIAETLRSKLEKYVDITKKLEDQNLNLQIKISDLEKKLSDANSTFKEMRFPKVKDPMVDDDPVSENYDQINVPKHRAPDATGNPRTTNKVSNTSDQDSRLKAIERTLSVLTNYVMRSEDGNNDRMSPLPSPLNTILPINNRLNFQEPKRYNPTVKVNPSDDDIMMYESAELKRVEEEIEELKRKILVRKKHDLRKLSLNNQLQELQSMMDGDDNIKLDNVSKHNHATHRHSSQSSRDYSPSSDACLECSNDLYEKNRVKPENNMSETFATPTPNNR
binds	Spc110p (natural protein, UniProt P32380 1-944, looked up) MDEASHLPNGSLKNMEFTPVGFIKSKRNTTQTQVVSPTKVPNANNGDENEGPVKKRQRRSIDDTIDSTRLFSEASQFDDSFPEIKANIPPSPRSGNVDKSRKRNLIDDLKKDVPMSQPLKEQEVREHQMKKERFDRALESKLLGKRHITYANSDISNKELYINEIKSLKHEIKELRKEKNDTLNNYDTLEEETDDLKNRLQALEKELDAKNKIVNSRKVDDHSGCIEEREQMERKLAELERKLKTVKDQVLELENNSDVQSLKLRSKEDELKNLMNELNELKSNAEEKDTQLEFKKNELRKRTNELNELKIKSDEMDLQLKQKQNESKRLKDELNELETKFSENGSQSSAKENELKMLKNKIAELEEEISTKNSQLIAKEGKLASLMAQLTQLESKLNQRDSQLGSREEELKKTNDKLQKDIRIAREETVSKDERIIDLQKKVKQLENDLFVIKKTHSESKTITDNELESKDKLIKILENDLKVAQEKYSKMEKELKEREFNYKISESKLEDEKTTLNEKISNLAAENSQLKNKIEDNSTATHHMKENYEKQLESLRKDIEEYKESAKDSEDKIEELKIRIAENSAKVSEKRSKDIKQKDEQISDLTQNLKLQEDEISSLKSIIDRYKKDFNQLKSEQSNIQHDLNLQILNLENKLIESEDELKSLRDSQKIEIENWKRKYNNLSLENDRLLTEKESASDKEREISILNRKLDEMDKEKWNLQESKEKYKRELQKVITANDRLRREKEELNENSNNIRIMEDKMTRIKKNYLSEITSLQEENRRLEERLILNERRKDNDSTMQLNDIISYYKLKYHSEVRHNNDLKVINDYLNKVLALGTRRLRLDTRKGEHSLNISLPDDDELDRDYYNSHVYTRYHDYEYPLRFNLNRRGPYFERRLSFKTVALLVLACVRMKRIAFYRRSDDNRLRILRDRIESSSGRISW
binds	Spc29p (natural protein, UniProt P33419 1-253, looked up) MDYSNFGNSASKKFQDDTLNRVRKEHEEALKKLREENFSSNTSELGNKKHYRAQERMSSPLHRLSPTGKSDDRKVKSPLDDKLRRQLREGNTRLPPPPFSSYGMPPTNRSNLDRIRRRTSSPVRTDKFASQNVIDDQRLEIKYLERIVYDQGTVIDNLTSRITRLESFILNSISDRGDKNFASLEHSRSFSGFPTNKTYGLQMGGLYENDMPYRRSSDNINKEGAREDRSSQIHIENESTEDILKILSSSFHN
